Data published in the supplement of paper PMC12636428.

Test system: Saccharomyces cerevisiae
Assay: transcriptional activation domain activity (GFP:mCherry ratio, weighted mean of sorted bins, harmonized to initial dataset scale) (arbitrary fluorescence ratio units); higher = stronger transcriptional activation
Conditions: beta-estradiol 1 µM; induction time 4 h
Protocol: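 53-aa protein tiles (fungal proteins plus yeast TF control tiles) fused C-terminally to a DBD-estrogen-binding domain-mCherry synthetic TF, integrated in S. cerevisiae (URA3 locus) with a GFP reporter. Cells were induced with 1 uM beta-estradiol for 4 h at 30 C, FACS-sorted into 8 bins by GFP:mCherry ratio and barcodes sequenced. Activity is the read-weighted mean bin fluorescence (GFP:mCherry), averaged over barcodes (median 12); tiles under 50 reads were discarded. New active-learning values were harmonized by linear fit onto the scale of the initial (Hummel et al.) dataset. The assay saturates at low and high signal.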

Row | Sequence | transcriptional activation domain activity
1 | PPPKGSDAALAAPPPPPGASGAPPPPPPKGSEAAAAAPPPPPPADASGAPPPP | 26100
2 | RTYVQYWIQAFPKIARFFTIFFAAMSVTRYKAFMDSPVLALNNLAKRILRMSL | 44500
3 | WCVVLCMVLILPRLFYTILQMNDYNISPFNPNVNALYTSLLGYLPLLAVFIVM | 53800
4 | MVLQNSMIVIFCHSFDIVWSVFLIGHYCILFYRYLIFCYVCVSFNWTFYLYIF | 58700
5 | MDKFRVLRLVLFRWWLFALCLIRFEVMEALLIHSPRFFEKLILVRTNLYLLCI | 50100
6 | NAVIKDFACVNECLARCSHVITTRRIIYILQLRVHCVAYSLPILNLPLFFFSR | 55300
7 | IYVELYFILSSIWFSRIYYMFGFLFLCYGLMIMTCATVTILMVYFLLCAENYN | 58300
8 | AAAPRAKNAPRGKKQTAAKTAPEPEPEPEAEPAPAPKPRGRQKKTVKASAPEV | 20800
9 | DVPEEKKAESEKVDSDQEKAESEAKKIDETPAKETADKPEEKSEDKAEDKAAE | 26100
10 | MSTNSPESTGDHTDTERKDMPRKRSKVSRACDACRRKKVRCDAEFLTTLQKVT | 79400
11 | GLQGQYNAYSTKHNINVPHGDILVFSLACGQIMYAWLMRPDTLPISYSNWICN | 39300
12 | MLMGCLCSYLRPHSLGCEGCYLLLHSLFIYGLRLVIGRFMSWSFSLVSFLFFY | 62100
13 | LSTVLKWSYEEIQVHIMTMRKEILNRRNHAYYDMYVLLLQLLLHIADSLTRGS | 45500
14 | DADEAEGAPDAAGEGAAKKKKKRKPRKKKKGGAGGGGGGGPKVQTSPPRVPIH | 11400
15 | CNVLCYGYNVVLLVMKLYVKRVFVSPRGVRQPLVLAPYEHTLYIRFSCQPITD | 29300
16 | IGENDTVDGKRFCTFYPQYREGRVRVNLGVTRLSFRAFYICPLAFTIARYLLN | 67400
17 | RRRLNYISTRGLPHFFVLLFLIGLLILIVAMRVCLHILSKSSPLFFFLLILGC | 38500
18 | ENVRGIMTENIERVLERGERIDLLVDKTGRLNVNAGEFRRRSRGLRRRMWWKN | 37700
19 | FLDFLDLWTFGLFGPLDFLDFLDFLDFLDFLDFLDFLDLWTFGLFGPLDFLDF | 46900
20 | LYEHLDEDHRLLWSYLSRLGSYVFQPEIPDLTLYLSELKTVIRCFLNQLIKIS | 56700
21 | EPAEEDSKPEEPAAAAEPEAEVKEEPAEEPAAPAEPKAEAEPEKADETPAAEA | 24000
22 | NSSNNNNNNNIISNRKQASKEKRKIPRHIQTIDEKLINDSNYLAFLKFDDLEN | 83500
23 | MHCSLPSGLSFGCQYALVHLLFVRRISIWGLLILQIFLGTRVFYHVFILRVVR | 62700
24 | VCEEAVGCVRRAALEGFVDEDVRAANVLVRRAGERKERAGRAGRSRVVLVDLA | 32600
25 | SIYLCTHGTFFVVVTPIYFDYPCCGNPLVLFSSTLGMIIHFILFFFCLPCFFL | 63100
26 | GAGPVGYGPQGAGEGDGESKSDSETMRTATTQPPPKPKQLYFIYVLASHYGLG | 61700
27 | YIQDIQCLQFENGGVGRMELEAKHWMIYHGILLAKILRLLEDSPLKRFTIVNA | 47800

Row | Sequence | transcriptional activation domain activity
28 | MPQSLTCRSASIIATQDCFDVIIFRLRFLLDIARGTLLLFRDHGRALTPFGRP | 51100
29 | KRKPRRPVRVDKDPEEEEEEDKEEEEEEEEDPRGKEKKKAKPKRKAKAKAAED | 21400
30 | ILNITPYAAGQFGYYYGTCWFNDPRPDVQFRWLLGSQSVWILLMSTGEVVFFF | < 6570
31 | ASSAPAAASSAPDAASSAPAAASSAPAAASSAPPAAASPAASPAAGGFQLQNG | 38200
32 | RARCIPSAPTRRPLTRSTSTCRRPPRTTGSCWTSSRPSSTPKTSSSAAKPAPC | 46200
33 | CLLGTGSFWGLVYISLAYMDGFAFKYLLQFHHIIKLLWISTVGGLIMIAFWSF | 52900
34 | AKEEKKEEKKEEAKAAEEVKPEETPAVEETKAEEAKVDEAKTEETPAVAAAAA | 15700
35 | PLPSPPSLPLPSPPSHSLLPLFLPFLPSLCSSLSILFPPLLLSHCPCFSFFLS | 63500
36 | AQQPQKKPGAPKPKGAVRAKSGCYTCRIRRKKCDENPNAEGACQTCVRLRLQC | 66200
37 | LLSLPNYFGIVFQVLKPEITTMYIAALDLCNLHTLYKAILFTLLALTWLILVF | 50500
38 | IARPISFFVLGASAAFTTIRALGPSTHPLISVNYFSLWCTFVSLLALLLCPLL | 58700
39 | LVAFGMRFGGPTLLKLYFLPWMACHLIFALVPVIITLPMQWANHWIVALTYLH | 57900
40 | MEGGRGSRGSHENNELFFFLSLHSRFFFFYLFIYFSLLFFSFTIYFMVFFFFF | 54600
41 | KQGQEVEFKPERGVGDLVLKVTGRKRGYRAEERRSNSLRAQLVISHAVPLAVT | 60200
42 | KLYYLAFYSGNILRRDLNLIIGVGKNWNLPAFWAPLLRYVTCPILAIIYSMAY | 63600
43 | DCDLTCDTPCTASTSATSGHKFVQDHQSSNNDDVFHKYCKFCEESTDNQPCSK | 58300
44 | MAPQRRPAAEVISSDSDDEAARPTGSAATRSAGGGGAGGGRRIVLTGRGNNSS | 20400
45 | GPYDDIFMGGIYGIKHLYELEDGLTILWHDGIHFSPNRVFRLLIAFLLRVVGT | 61900
46 | MGCFFSFLFFFLFLFLFRSTVQSKVAFSLSLFFSLFKYLFFCCLVLGYFYLVL | 70500
47 | LRDLERSFDLLRFTWVPSIACWILPLLTRPDFSTLLSVLGETIQRFSSNFVIM | 73700
48 | MASKDPVYDEKTGAPKLVAESDSSNVETGGGTPERTLHRQLKNRHIAMISIGG | 44900
49 | SFTLYTIGICGLCDQFGLFCWVHMSLLIIVLSSHFIVNNILEGLIWFWVPASL | 31400
50 | AKRARKSSSSAAAKEEEGQPQQTAPAAAANGTAADEARADTTTASTKSDKKQK | 28800
51 | AGEAPIAEGQQAQEARPAAEGAGAGTENQPGRAEGEAAKAEAQAEQQQQQGQA | 10300
52 | RLCEFLFFLLFFGGFLVGGLVGLGVWFGWAFVLAFSFFLALHFGVSNHLFVVF | 29000
53 | RGFVVMLEGLFICGGLVIQAFLNLGLSHATGGVTWRFSLAFSCFFDLVVFFSI | 46600
54 | LLVLFACQIICETIVIGITSNAFSVVVLPPYFTGCLPGNIKPFAWVYWLPMLL | 59400

Row | Sequence | transcriptional activation domain activity
55 | EKEARHAGRESRKAPEVREHRSSRRKDKERERSARPDNERRKTHVDGEDPEER | 23800
56 | FLPCDPYFLVSFFIQFFLLGFPFCLPLLSFLLLLLSFFHLSLEVFSLLLGDFH | 59400
57 | MYLQWASCPLLICVSCFYTSLIYFAIISMSSMILTLVCLDRSMCWYSGWIFSS | 46000
58 | KFNLLEWSEILSLLTCYRLLIAMYSFRSLVIVIASYIVFGLSVFSLLVRLLFL | 38100
59 | SSNFQTIDNENNVKTPGNKLTDFFQQQSAGWIEGNSSNDDFFGWFDMNMEQGF | 133000
60 | LHPAPSSPSSTPRRRAAASTTATRTPAPAPTRTRRCSSSTKPPTASSSTPPRR | 57400
61 | VCVLHLIVIALSLTDLILPSLIWGLTAIFLGVYAIVQKLSIALIVQPQLFGTL | 65700
62 | MLKLFWTISKVFGPSDLTLQERGHYMELIIALRFIQGWWQDRDLNGFLPLWVR | 65000
63 | GDGKEEGAQKKKKKKAKKAHGEEGEQEGGDEKAKKKKKKKKKKALGGRARARA | 26600
64 | LLLLLDRFIDRNHLLDHIKIGTSDLLNLPGQRSIYISRLCRAICILGYNVNND | 30400
65 | MVNNYWSYQYSLMPFLFFFFVSQFKSCSYFFFSLLFFSWLFRFLVSYFLSWKT | 71500
66 | LIYQKLPRVLKRPGWNFHPAVALTFSILLFAAYPLICFFNILIAWSNEVSFHN | 54300
67 | TTTTAADDADTDSKKEKEKEQAAVKVKVKEKEKEKRVLVHCCMGRSRSGAVVV | 20200
68 | MMLWWRWRWILLLMLMLMLRWRWWWHTSLWWRWSKCLLTRLLLLLLLWWWDSF | 55000
69 | RTILLASYIFSNIFVCLIVLNDSLKILWWLGDSYWHKIWFFRIWLWANSISFL | 74800
70 | AEDADADGRTQRQGKGAGASSGSERRTHKARSRKSAKLDSKEKDGEKDKEWKG | 23600
71 | MFVNLFFSLLTPICTLCFFCNPLSLPLPFFPSHLFPLFSILPLLFFFFFLCCY | 46200
72 | LVHNTLCMLDLIPLLSVRLLLMSLSICFGWYTIFVFAAGVIETVHLTIGRTFT | 33900
73 | DSKGFEARRANMGNDVELTGARAIVLVNIWNVQTSCGLSVPLVVQSNSGTECG | 59400
74 | PLVVDFPQAVEYFPEMALKYMMCWLSRFDLLPGERLGCRVLAAFIHLTIHRVS | 57200
75 | MYCSLQTLLFRFFAYWQGMTFFGFLFCFHVLGSQNLFFGSCFVLLLMQLLCLF | 58900
76 | AAGPGNNDLDDTDTDNQQFFLSDMNLNGSSVFENVFDDDDDDDDVETHSIVHS | 28900
77 | IGLCYVIILAIICFQRIYVQPYLYGIEAYMNREICLCWLVLLSLNLSTLQFNQ | 74300
78 | VKRVAFGCLSTILALYLVHKYTYEHPFILSDNRHYSFYVWKKIYRRHWMVRYC | 61000
79 | MYIPPQSSVFLDIDSWGLIPVTCHLWLVMRWMYEAVMLPYLSQDGRHIVKFRY | 40700
